Assay [1] has as its target human glucagon-like peptide-1 (GLP-1) receptor (human) (UniProt P43220). The assay is described as follows: cell-based or functional assay.
Assay [2] has as its target human FGFR1c (FGF receptor 1c isoform) together with human beta-Klotho (KLB) (human), P11362. The assay is described as follows: cell-based or functional assay.

Chain of UniProt P43220 (P43220 24-463): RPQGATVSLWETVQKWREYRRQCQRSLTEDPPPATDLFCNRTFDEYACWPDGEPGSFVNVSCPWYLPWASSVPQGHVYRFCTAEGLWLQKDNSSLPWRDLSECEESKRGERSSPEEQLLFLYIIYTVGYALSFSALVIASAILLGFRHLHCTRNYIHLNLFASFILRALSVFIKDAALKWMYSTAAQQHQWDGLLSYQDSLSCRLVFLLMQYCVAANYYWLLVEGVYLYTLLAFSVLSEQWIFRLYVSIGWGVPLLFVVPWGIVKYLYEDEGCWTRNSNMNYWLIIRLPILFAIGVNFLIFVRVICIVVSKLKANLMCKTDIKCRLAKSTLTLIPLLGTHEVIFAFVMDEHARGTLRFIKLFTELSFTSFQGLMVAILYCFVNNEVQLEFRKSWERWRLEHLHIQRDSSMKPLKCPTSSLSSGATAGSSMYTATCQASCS
Chain of human FGFR1c (FGF receptor 1c isoform) together with human beta-Klotho (KLB) (human), P11362 (P11362 22-822, chain 1 of 2): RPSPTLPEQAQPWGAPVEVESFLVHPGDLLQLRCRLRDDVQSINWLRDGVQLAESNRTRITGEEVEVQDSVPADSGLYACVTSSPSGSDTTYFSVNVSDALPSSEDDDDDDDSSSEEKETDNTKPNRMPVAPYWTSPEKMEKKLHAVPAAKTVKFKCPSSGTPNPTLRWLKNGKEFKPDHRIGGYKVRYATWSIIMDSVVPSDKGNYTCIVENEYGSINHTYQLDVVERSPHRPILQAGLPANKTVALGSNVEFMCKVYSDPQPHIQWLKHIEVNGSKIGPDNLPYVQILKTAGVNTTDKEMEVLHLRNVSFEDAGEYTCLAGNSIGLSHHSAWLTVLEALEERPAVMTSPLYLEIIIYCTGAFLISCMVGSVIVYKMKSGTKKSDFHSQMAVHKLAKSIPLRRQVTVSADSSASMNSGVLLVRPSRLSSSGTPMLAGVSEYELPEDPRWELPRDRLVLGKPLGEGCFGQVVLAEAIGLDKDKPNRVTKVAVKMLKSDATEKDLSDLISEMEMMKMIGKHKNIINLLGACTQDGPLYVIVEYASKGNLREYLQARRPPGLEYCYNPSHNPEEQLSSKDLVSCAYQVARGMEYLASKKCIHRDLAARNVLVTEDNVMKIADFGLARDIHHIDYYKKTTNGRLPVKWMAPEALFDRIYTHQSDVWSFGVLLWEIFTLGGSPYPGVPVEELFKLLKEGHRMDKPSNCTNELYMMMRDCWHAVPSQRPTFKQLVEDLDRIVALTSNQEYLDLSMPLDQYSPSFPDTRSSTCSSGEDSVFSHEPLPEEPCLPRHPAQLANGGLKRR
Chain of human FGFR1c (FGF receptor 1c isoform) together with human beta-Klotho (KLB) (human), P11362 (Q86Z14 whole entry, chain 2 of 2, further chain, canonical isoform): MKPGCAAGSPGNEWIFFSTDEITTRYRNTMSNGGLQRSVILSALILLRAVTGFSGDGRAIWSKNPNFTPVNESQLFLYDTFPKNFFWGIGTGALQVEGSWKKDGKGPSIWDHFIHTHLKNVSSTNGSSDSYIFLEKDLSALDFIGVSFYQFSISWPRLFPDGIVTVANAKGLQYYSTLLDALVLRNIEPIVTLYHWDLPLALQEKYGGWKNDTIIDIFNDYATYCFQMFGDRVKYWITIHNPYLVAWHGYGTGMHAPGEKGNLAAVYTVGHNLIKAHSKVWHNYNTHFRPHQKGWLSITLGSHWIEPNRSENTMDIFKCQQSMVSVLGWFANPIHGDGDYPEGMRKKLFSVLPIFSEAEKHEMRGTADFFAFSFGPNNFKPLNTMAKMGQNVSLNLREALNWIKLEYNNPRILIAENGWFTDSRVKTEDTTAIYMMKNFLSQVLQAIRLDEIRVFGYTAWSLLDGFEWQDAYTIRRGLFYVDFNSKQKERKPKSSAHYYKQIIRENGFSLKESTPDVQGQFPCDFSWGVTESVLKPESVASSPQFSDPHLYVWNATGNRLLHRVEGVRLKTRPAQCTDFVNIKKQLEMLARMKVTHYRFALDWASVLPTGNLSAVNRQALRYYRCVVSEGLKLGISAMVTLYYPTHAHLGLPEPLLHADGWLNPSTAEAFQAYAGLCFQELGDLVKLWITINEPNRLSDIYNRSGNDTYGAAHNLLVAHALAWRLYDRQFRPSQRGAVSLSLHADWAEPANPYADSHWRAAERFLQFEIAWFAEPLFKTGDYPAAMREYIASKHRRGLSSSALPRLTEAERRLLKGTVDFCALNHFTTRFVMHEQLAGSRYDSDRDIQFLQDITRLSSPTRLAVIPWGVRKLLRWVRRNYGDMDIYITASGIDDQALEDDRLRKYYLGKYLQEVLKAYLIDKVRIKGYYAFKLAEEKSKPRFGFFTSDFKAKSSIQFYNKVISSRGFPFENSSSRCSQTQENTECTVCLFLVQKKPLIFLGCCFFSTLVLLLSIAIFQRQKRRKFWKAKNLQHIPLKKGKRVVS

On to “GLP1(7-36) A8G, V16L, S18I, Y19Q, E21D, G22E, Q23E, A25V, K26R, E27L, A30E, V33E, K34A, G35T, R36G, (Fc fusion)”, for which, in assay [1], the EC50 of cAMP response (HTRF) is 0.675 nM and the Ratio GLP-1R agonistic activity: native GLP-1(7-36)/tested GLP-1R agonist is 877 fold.

“GLP1(7-36) A8G, V16L, S18I, Y19Q, E21D, G22E, Q23E, A25V, K26R, E27L, A30E, V33L, K34A, G35T, R36G, (Fc fusion)”: in assay [1], the EC50 of cAMP response (HTRF) is 0.0605 nM and the Ratio GLP-1R agonistic activity: native GLP-1(7-36)/tested GLP-1R agonist turned out to be 78.6 fold.

For “GLP1(7-36) A8G, V16L, S18K, Y19Q, E21D, G22E, Q23E, A25V, K26Q, E27L, A30E, V33L, K34A, G35T, R36G, (Fc fusion)”, in assay [1], the EC50 of cAMP response (HTRF) was 0.173 nM and the Ratio GLP-1R agonistic activity: native GLP-1(7-36)/tested GLP-1R agonist is 225 fold.

In the case of “GLP1(7-36) A8G, V16L, S18K, Y19Q, G22E, Q23E, A25V, K26Q, E27L, A30E, V33E, K34A, G35T, R36G, insPSS (Fc fusion)”, in assay [1], the EC50 of cAMP response (HTRF) was 0.134 nM and the Ratio GLP-1R agonistic activity: native GLP-1(7-36)/tested GLP-1R agonist is 174 fold.

B1: mature human wild-type FGF21, FGF21(His29-Ser209), Q9NSA1 29-209 (ligand)
chain: HPIPDSSPLLQFGGQVRQRYLYTDDAQQTEAHLEIREDGTVGGAADQSPESLLQLKALKPGVIQILGVKTSRFLCQRPDGALYGSLHFDPEACSFRELLLEDGYNVYQSEAHGLPLHLPGNKSPHRDPAPRGPARFLPLPGLPPAPPEPPGILAPQPPDVGSSDPLSMVGPSQGRSPSYAS
As for B1, in assay [2], the pERK ICW EC50 (downstream activation of the MAP kinase ERK1/2, In-Cell Western) turned out to be 0.18 nmol/L and the pFGFR ICW EC50 (FGF21 receptor autophosphorylation, In-Cell Western) amounted to 4.8 nmol/L.

(Values after patent US20220401523A1.)
